The values that follow come from patent publication US6458539, “Photoselection of nucleic acid ligands” (Somalogic, Inc.).

Series [1] addresses PDGF (platelet derived growth factor) (UniProt P01127). Conditions: 5-bromo-2'-deoxyuridine (BrdU) substituted for T; photocrosslinking rate, 308 nm.
Series [2] shares this target. Nature of the series: filter. Conditions: 5-bromo-2'-deoxyuridine (BrdU) substituted for T.
The target of series [3] is T1, bFGF(155) (basic fibroblast growth factor, FGF2) (Homo sapiens, UniProt P09038 SEQ:1-155). The experiment in a line: filter; 1xPBS, 2 mM MgCl2, 0.01% HSA, 1 mM DTT, 37 C; Table 7 gives a different KD of 5.3e-9 M; Table 2 prints CACCC where SEQ 70 has CAGCC. Conditions: tags: expressed in E. coli; Bachem California lot SN 433; label: 5'-32P. The procedure:
(§1) Nitrocellulose filter binding was used to assess ligand affinity for bFGF_{(155)}. This was accomplished by first preparing 2,000 cpm/30 μL of 5'-^32P-radiolabeled material (≈1–5 fmol) of each sequence by dilution with 1×crosslink binding buffer (XLBB) (1×PBS/2 mM MgCl_2/0.01% HSA/1.0 mM dithiothreitol (DTT)) to give 2×DNA. Each 2×oligonucleotide sample was mixed with 30 μL of each bFGF_{(155)} concentration to be evaluated in a 96 well tray. bFGF_{(155)} concentrations were prepared by serial dilution with 1×XLBB. After incubation at 37° C. for 15 minutes, a multi-pipeter was used to load 40 μL of each DNA/bFGF_{(155)} mixture onto a pre-washed Gibco nitrocellulose binding curve apparatus followed by washing with a dissociation wash buffer. Bound DNA was then measured by phosphorimage and a binding curve for the percent bound DNA vs. [bFGF] was calculated by Kaleidograph ver. 3.09 software (Synergy Software Co., Reading, Pa).

Series [4] addresses T1, bFGF(155) (basic fibroblast growth …). The experiment in a line: filter; 1xPBS, 2 mM MgCl2, 0.01% HSA, 1 mM DTT, 37 C; Table 7 gives a different KD of 1.3e-10 M. Conditions: tags: expressed in E. coli; Bachem California lot SN 433; label: 5'-32P. How it is done: as §1
Series [5] deals with VEGF (vascular endothelial growth factor) (UniProt P15692-4 P15692-4:27-191). Nature of the series: filter; 1xPBS, 2 mM MgCl2, 37 C. Conditions: tags: R&D Systems; chain copies: 2; label: 5'-32P.
Sequence of VEGF (vascular endothelial growth factor) (P15692 other isoform, or with tags, fused parts or gaps): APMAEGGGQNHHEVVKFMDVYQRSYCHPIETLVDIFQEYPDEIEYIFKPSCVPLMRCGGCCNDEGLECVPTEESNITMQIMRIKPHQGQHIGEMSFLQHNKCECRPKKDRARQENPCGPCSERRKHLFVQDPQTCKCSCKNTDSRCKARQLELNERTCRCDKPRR

Where only a bound is given, the exact number is not on record here.

Sequence of PDGF (platelet derived growth factor) (P01127 82-190): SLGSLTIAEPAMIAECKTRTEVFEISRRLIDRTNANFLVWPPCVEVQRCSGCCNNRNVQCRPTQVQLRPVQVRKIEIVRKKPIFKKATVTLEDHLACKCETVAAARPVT
T1 sequence (P09038 134-288): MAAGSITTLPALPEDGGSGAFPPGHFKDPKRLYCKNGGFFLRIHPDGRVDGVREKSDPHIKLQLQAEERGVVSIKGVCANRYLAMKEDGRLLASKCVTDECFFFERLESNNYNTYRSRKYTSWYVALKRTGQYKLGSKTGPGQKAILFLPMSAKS

Take “GGGAGGACGATGCGGGCGAAGGCACACCGAGTTCATAGTATCCCACAGACGACGAGCGGGA [06.15]”: in series [1], the activity stood at 65000 M⁻¹ s⁻¹. In series [2] (1500-fold weaker than bFGF (Table 6), Table 3 states relative KD >1000), the Kd (commonly the constant that tells how readily two partners part at equilibrium) came out at 200 nM. “GGGAGGACGATGCGGTGACGTAAGAGTGTAATCGATGCAGCCTGGCAGACGACGAGCGGGA [06.50]” displayed an activity in series [1] of 61000 M⁻¹ s⁻¹. Besides, in series [2] (53-fold weaker than bFGF), the equilibrium dissociation constant (Kd) is 280 nM.

B1: 06.50 (ssDNA)
DNA: GGGAGGACGATGCGGTGACGTAAGAGTGTAATCGATGCAGCCTGGCAGACGACGAGCGGGA
modifications: 5-bromo-2'-deoxyuridine (BrdU) substituted for T
Take B1: the Kd in series [3] amounted to 0.56 nM.

B2: 06.15 (ssDNA)
DNA: GGGAGGACGATGCGGGCGAAGGCACACCGAGTTCATAGTATCCCACAGACGACGAGCGGGA
modifications: 5-bromo-2'-deoxyuridine (BrdU) substituted for T
Regarding B2, the Kd in series [4] was 0.016 nM. Moreover, in series [5], the binding signal is > 1000 fold KD relative to bFGF.
